Reference: publication PMC6270503, “The Clip-Segment of the von Willebrand Domain 1 of the BMP Modulator Protein Crossveinless 2 Is Preformed” (Molecules, 2013)

Biological target: T1, E. coli derived recombinant human BMP-2 (human, UniProt P12643 283-396)
T1 construct: Bone morphogenetic protein 2, human, recombinant from E. coli; also called bone morphogenetic protein 2
Experiment: SPR; ProteON XPR36, GLC chip; BMP-2 immobilised by amine coupling (1000-2000 RU), CV2 VWC1 proteins as analytes in six concentrations; 25 °C, HBST500 (10 mM HEPES pH 7.4, 500 mM NaCl, 0.005% Tween20); global Langmuir 1:1 fit, KD = koff/kon, or from dose-dependency of equilibrium binding for weak or fast binders; apparent KD
Conditions: both partners purified

T1 sequence (P12643 283-396): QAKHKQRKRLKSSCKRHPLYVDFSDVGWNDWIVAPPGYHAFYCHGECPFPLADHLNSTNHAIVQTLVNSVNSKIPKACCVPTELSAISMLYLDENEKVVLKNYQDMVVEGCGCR

B1: CV2 VWC1 C9A/C31A (domain or fragment)
chain: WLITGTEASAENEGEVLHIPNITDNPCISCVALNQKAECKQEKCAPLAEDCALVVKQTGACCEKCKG
modifications: Mature numbering = entity position minus 3 (C9A/C31A = C12A/C34A). Introduced N-terminal Trp kept; vector Gly-Ser left out. Remaining native disulfides, including Cys26-Cys60, Cys43-Cys61 and …
Binder B1 has a Kd of at least 3.3 µM and a koff of at least 0.05 s⁻¹.
